Assay results as given in US20100172907A1 (Hoffmann-La Roche, published 2010).
Changes are numbered by the printed parent chain. Groups on a side chain read outwards from the residue. No end group written: not given here. NSMP = not defined here

T1: BSA-conjugated Aβ heptapeptide AEFRHDC (C-terminal Cys coupled to NSMP-activated BSA)
T1 construct: also called Peptide 2-7
T1 peptide: AEFRHDC

T2: BSA-conjugated Aβ heptapeptide LVFFAEC (reading uncertain; also: BSA conjugate)
T2 construct: also called Peptide 17-22
T2 peptide: LVFFAEC([NSMP-BSA])

T3: BSA-conjugated Aβ heptapeptide VFFAEDC (C-terminal Cys coupled to NSMP-activated BSA)
T3 construct: also called Peptide 18-23
T3 peptide: VFFAEDC

T4: BSA-conjugated Aβ heptapeptide FFAEDVC (C-terminal Cys coupled to NSMP-activated BSA)
T4 construct: also called Peptide 19-24
T4 peptide: FFAEDVC

B1: MS-Roche #3.4.H2 Fab (Fab, V domains shown)
VH: QVQLVESGGGLVQPGGSLRLSCAASGFTFSSYAMSWVRQAPGKGLEWVSVIDMVGHTYYADSVKGRFTISRDNSKNTLYLQMNSLRAEDTAVYYCARLTHYARYYRYFDVWGQGTLVTVSS
VL: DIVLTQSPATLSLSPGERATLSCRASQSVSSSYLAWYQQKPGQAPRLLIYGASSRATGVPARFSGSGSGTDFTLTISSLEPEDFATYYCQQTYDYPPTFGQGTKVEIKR
notes: H-CDR2 printed with 16 residues
B2: MS-Roche #3.4.H7 Fab (Fab, V domains shown)
VH: QVQLVESGGGLVQPGGSLRLSCAASGFTFSSYAMSWVRQAPGKGLEWVSVISETGKNIYYADSVKGRFTISRDNSKNTLYLQMNSLRAEDTAVYYCARLTHYARYYRYFDVWGQGTLVTVSS
VL: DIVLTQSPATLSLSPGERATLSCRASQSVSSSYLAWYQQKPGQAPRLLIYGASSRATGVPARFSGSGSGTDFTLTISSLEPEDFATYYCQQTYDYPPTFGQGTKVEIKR
B3: MS-Roche #7 Fab (Fab, V domains shown)
VH: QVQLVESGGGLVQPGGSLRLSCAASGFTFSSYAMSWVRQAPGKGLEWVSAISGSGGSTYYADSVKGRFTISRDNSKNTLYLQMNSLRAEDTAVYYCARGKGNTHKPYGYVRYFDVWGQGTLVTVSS
VL: DIVLTQSPATLSLSPGERATLSCRASQSVSSSYLAWYQQKPGQAPRLLIYGASSRATGVPARFSGSGSGTDFTLTISSLEPEDFATYYCFQLYSDPFTFGQGTKVEIKR
notes: parental HuCAL Fab; also called MSR-7 Fab; MS-R 7
B4: MS-Roche #7.2.H1 Fab (Fab, V domains shown)
VH: QVQLVESGGGLVQPGGSLRLSCAASGFTFSSYAMSWVRQAPGKGLEWVSAINANGLKKYYADSVKGRFTISRDNSKNTLYLQMNSLRAEDTAVYYCARGKGNTHKPYGYVRYFDVWGQGTLVTVSS
VL: B3 VL with F90Q, L92I, D95F, F97H
B5: MS-Roche #7.4.H1 Fab (Fab, V domains shown)
VH: B4 VH with N54T, L56Y, K57R, K58T
VL: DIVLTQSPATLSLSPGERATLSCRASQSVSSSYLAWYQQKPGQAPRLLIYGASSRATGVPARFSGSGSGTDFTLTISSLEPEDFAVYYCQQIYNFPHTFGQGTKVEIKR
B6: MS-Roche #7.9.H1 Fab (Fab, V domains shown)
VH: B4 VH with L56Q, K57R, Y59F
VL: B3 VL with F90L, L92I, S94N, D95M, F97I
notes: assembled
B7: MS-Roche #7.2 Fab (Fab, V domains shown)
VH: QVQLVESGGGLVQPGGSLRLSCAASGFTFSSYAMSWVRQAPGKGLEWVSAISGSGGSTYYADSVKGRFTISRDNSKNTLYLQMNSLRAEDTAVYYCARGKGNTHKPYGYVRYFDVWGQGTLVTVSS
VL: B3 VL with F90Q, L92I, D95F, F97H
B8: MS-Roche #7.12.L1 Fab (Fab, V domains shown)
VH: B4 VH with A33G, A50N, N52S, A53G, N54S, L56S, K57S, K58T
VL: DIVLTQSPATLSLSPGERATLSCRASQYVFRRYLAWYQQKPGQAPRLLISGSSNRATGVPARFSGSGSGTDFTLTISSLEPEDFAVYYCLQLYNIPNTFGQGTKVEIKR
B9: MS-Roche #3.4.H13 Fab (Fab, V domains shown)
VH: B2 VH with V50A, T54Q, K56R
VL: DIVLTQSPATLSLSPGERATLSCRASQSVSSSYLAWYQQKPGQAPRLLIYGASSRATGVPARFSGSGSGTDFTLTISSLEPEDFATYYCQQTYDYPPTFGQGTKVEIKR
B10: MS-Roche #3.6.H3 Fab (Fab, V domains shown)
VH: B2 VH with N57F
VL: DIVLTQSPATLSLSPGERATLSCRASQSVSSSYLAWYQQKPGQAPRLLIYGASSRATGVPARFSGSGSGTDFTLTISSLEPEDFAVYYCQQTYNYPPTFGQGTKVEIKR
B11: MS-Roche #3.6.L2 Fab (Fab, V domains shown)
VH: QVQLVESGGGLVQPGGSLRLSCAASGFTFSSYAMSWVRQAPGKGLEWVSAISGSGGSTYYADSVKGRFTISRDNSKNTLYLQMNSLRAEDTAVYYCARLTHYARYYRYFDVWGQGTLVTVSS
VL: B3 VL with S28F, V29L, S31R, S32Y, T86V, F90Q, L92T, S94N, D95Y, F97P
B12: MS-Roche #3.4.L9 Fab (Fab, V domains shown)
VH: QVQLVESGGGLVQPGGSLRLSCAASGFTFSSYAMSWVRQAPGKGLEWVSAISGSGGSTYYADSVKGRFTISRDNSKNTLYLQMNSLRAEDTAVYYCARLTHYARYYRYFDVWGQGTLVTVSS
VL: DIVLTQSPATLSLSPGERATLSCRASRRIHVYYLAWYQQKPGQAPRLLIYGASSRATGVPARFSGSGSGTDFTLTISSLEPEDFATYYCQQTYDYPPTFGQGTKVEIKR
B13: MS-Roche #3.4.H14 Fab (Fab, V domains shown)
VH: B2 VH with V50A, T54S, K56Q, N57Y, I58K
VL: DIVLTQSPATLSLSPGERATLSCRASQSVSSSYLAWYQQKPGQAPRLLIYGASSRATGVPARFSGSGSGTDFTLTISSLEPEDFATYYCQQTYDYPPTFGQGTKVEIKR
B14: MS-Roche #8.2.H4 Fab (Fab, V domains shown)
VH: QVQLVESGGGLVQPGGSLRLSCAASGFTFSSYAMSWVRQAPGKGLEWVSATSVKGKTYYADSVKGRFTISRDNSKNTLYLQMNSLRAEDTAVYYCARLLSRGYNGYYHKFDVWGQGTLVTVSS
VL: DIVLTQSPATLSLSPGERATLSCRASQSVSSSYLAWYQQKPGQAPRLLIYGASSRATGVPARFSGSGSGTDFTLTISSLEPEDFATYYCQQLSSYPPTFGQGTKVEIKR
notes: as for B1
B15: MS-Roche #7.12.H1 Fab (Fab, V domains shown)
VH: B4 VH with A33G, A50N, A53G, L56N, K57R
VL: B8 VL
B16: MS-Roche #7.12.L4 Fab (Fab, V domains shown)
VH: B4 VH with A33G, A50N, N52S, A53G, N54S, L56S, K57S, K58T
VL: B8 VL with Y28R, V29L, F30K, R32S
B17: MS-Roche #7.12.L3 Fab (Fab, V domains shown)
VH: B4 VH with A33G, A50N, N52S, A53G, N54S, L56S, K57S, K58T
VL: B8 VL with Y28F, F30R, R32G, Y33F
B18: MS-Roche #7.12.L2 Fab (Fab, V domains shown)
VH: B4 VH with A33G, A50N, N52S, A53G, N54S, L56S, K57S, K58T
VL: B8 VL with Y28R, V29F, R31Y, R32K
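Wherever OD ratio 17-22/BSA is given: ELISA of antibody at 10 or 2 µg/ml binding plate-coated BSA–peptide conjugates, detected with HRP anti-human Ig and TMB colour, mock-treated BSA without peptide as negative control.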
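Wherever OD ratio 18-23/BSA is given: ELISA of antibody at 10 or 2 µg/ml binding plate-coated BSA–peptide conjugates, detected with HRP anti-human Ig and TMB colour, mock-treated BSA without peptide as negative control.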
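Wherever OD ratio 2-7/BSA is given: ELISA of antibody at 10 or 2 µg/ml binding plate-coated BSA–peptide conjugates, detected with HRP anti-human Ig and TMB colour, mock-treated BSA without peptide as negative control.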
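Wherever Peptide-ratio 17-22/2-7 is given: ELISA of antibody at 10 or 2 µg/ml binding plate-coated BSA–peptide conjugates, detected with HRP anti-human Ig and TMB colour, mock-treated BSA without peptide as negative control.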

Molecular target: T1, BSA-conjugated Aβ heptapeptide AEFRHDC
Experiment: ELISA
With B1 the “OD ratio 2-7/BSA” value was 16.
For B2, the “OD ratio 2-7/BSA” value was 24.
With B3 the “OD ratio 2-7/BSA” value was 24.
For B4, the “OD ratio 2-7/BSA” value was 38.
With B5 the “OD ratio 2-7/BSA” value was 31.
With B6 the “OD ratio 2-7/BSA” value was 32.
For B7, the “OD ratio 2-7/BSA” value was 34.
In the case of B8, the “OD ratio 2-7/BSA” value is reported as 16.

Molecular target: T2, BSA-conjugated Aβ heptapeptide LVFFAEC
Experiment: ELISA
In the case of B1, the “OD ratio 17-22/BSA” value is reported as 11 and the “Peptide-ratio 17-22/2-7” value is reported as 0.69.
In the case of B3, the “OD ratio 17-22/BSA” value is reported as 4 and the “Peptide-ratio 17-22/2-7” value is reported as 0.17.
B4 was tested, and the “OD ratio 17-22/BSA” value was 8 and the “Peptide-ratio 17-22/2-7” value was 0.21.
In the case of B5, the “OD ratio 17-22/BSA” value is reported as 16 and the “Peptide-ratio 17-22/2-7” value is reported as 0.52.
B6 was tested, and the “OD ratio 17-22/BSA” value was 7 and the “Peptide-ratio 17-22/2-7” value was 0.23.
For B7, the “OD ratio 17-22/BSA” value was 12 and the “Peptide-ratio 17-22/2-7” value was 0.35.
B8 was tested, and the “OD ratio 17-22/BSA” value was 10 and the “Peptide-ratio 17-22/2-7” value was 0.6.

Molecular target: T3, BSA-conjugated Aβ heptapeptide VFFAEDC
Experiment: ELISA
With B1 the “OD ratio 18-23/BSA” value was 1 and the “Peptide-ratio 18-23/2-7” value was 0.06.
B2 was tested, and the “OD ratio 18-23/BSA” value was 6 and the “Peptide-ratio 18-23/2-7” value was 0.25.
In the case of B3, the “OD ratio 18-23/BSA” value is reported as 7 and the “Peptide-ratio 18-23/2-7” value is reported as 0.29.
B4 was tested, and the “OD ratio 18-23/BSA” value was 11 and the “Peptide-ratio 18-23/2-7” value was 0.29.
In the case of B5, the “OD ratio 18-23/BSA” value is reported as 20 and the “Peptide-ratio 18-23/2-7” value is reported as 0.65.
In the case of B6, the “OD ratio 18-23/BSA” value is reported as 12 and the “Peptide-ratio 18-23/2-7” value is reported as 0.36.
With B7 the “OD ratio 18-23/BSA” value was 16 and the “Peptide-ratio 18-23/2-7” value was 0.47.
B8 was tested, and the “OD ratio 18-23/BSA” value was 12 and the “Peptide-ratio 18-23/2-7” value was 0.7.

Molecular target: T4, BSA-conjugated Aβ heptapeptide FFAEDVC
Experiment: ELISA
With B1 the “OD ratio 19-24/BSA” value was 1 and the “Peptide-ratio 19-24/2-7” value was 0.06.
For B2, the “OD ratio 19-24/BSA” value was 5 and the “Peptide-ratio 19-24/2-7” value was 0.21.
B3 was tested, and the “OD ratio 19-24/BSA” value was 4 and the “Peptide-ratio 19-24/2-7” value was 0.17.
In the case of B4, the “OD ratio 19-24/BSA” value is reported as 9 and the “Peptide-ratio 19-24/2-7” value is reported as 0.24.
B5 was tested, and the “OD ratio 19-24/BSA” value was 16 and the “Peptide-ratio 19-24/2-7” value was 0.51.
For B6, the “OD ratio 19-24/BSA” value was 6 and the “Peptide-ratio 19-24/2-7” value was 0.19.
With B7 the “OD ratio 19-24/BSA” value was 9 and the “Peptide-ratio 19-24/2-7” value was 0.26.
With B8 the “OD ratio 19-24/BSA” value was 10 and the “Peptide-ratio 19-24/2-7” value was 0.59.

Each binder was assayed against T5, human Aβ (1-40) peptide (human) (assay: SPR, immobilized fibers;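 further: biacore SPR using in vitro grown Aβ1-40 or Aβ1-42 fibrils immobilized on the chip with Fab analytes, KD from koff/kon fits or equilibrium isotherms based on total Fab concentration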).
T5 construct: also called Aβ1-40 fibers
Method: (§1) Biacore2000 and Biacore3000 instruments were used for these measurements. Aβ1-40 and Aβ1-42 fibers were generated in vitro by incubation of synthetic peptides at a concentration of 200 μg/ml in 10 mM Na-acetate buffer (pH 4.0) for three days at 37° C. […] For binders with slow kinetics KD values were calculated by curve fitting of the time-dependent sensor responses, i.e. from the ratio of koff/kₒₙ. Binders with fast kinetics were analyzed by fitting the concentration-dependent sensor responses at equilibrium (adsorption-isotherms). KD values were calculated from the Biacore sensograms based on the total Fab concentration as determined by a protein assay. […] Briefly, time-dependent protein binding to Aβ1-40 fibers immobilized on the Biacore chip was measured during the association phase under mass-limited conditions at different flow rates of the analyte solution.
Work on B2 yielded a Kd of 19.2 nM.
Binder B9 has a Kd of 32.3 nM.
Binder B10 has a Kd of 5.4 nM.
In the case of B11, the Kd is reported as 13.7 nM.
Binder B12 has a Kd of 16.3 nM.
Work on B13 yielded a Kd of 13.3 nM.
For B14, the Kd was 12.1 nM.
B3 was tested, and the Kd was 1100 nM.
B4 showed a Kd of 9.3 nM.
Work on B7 yielded a Kd of 22 nM.
For B15, the Kd was 0.6 nM.
For B16, the Kd was 2 nM.
Work on B17 yielded a Kd of 0.8 nM.
B18 was tested, and the Kd was 4 nM.

The binders below were run against T6, Aβ (1-42) peptide (human) (assay: SPR, immobilized fibers;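 further: biacore SPR using in vitro grown Aβ1-40 or Aβ1-42 fibrils immobilized on the chip with Fab analytes, KD from koff/kon fits or equilibrium isotherms based on total Fab concentration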).
T6 construct: also called Aβ1-42 fibers; Aβ4
Method: as §1
With B2 the Kd was 31.7 nM.
Binder B9 has a Kd of 18.8 nM.
B10 showed a Kd of 7.5 nM.
In the case of B11, the Kd is reported as 13.1 nM.
In the case of B12, the Kd is reported as 9.1 nM.
B13 gave a Kd of 16.8 nM.
Work on B14 yielded a Kd of 11.9 nM.
In the case of B3, the Kd is reported as 1710 nM.
For B4, the Kd was 10.2 nM.
B7 gave a Kd of 58 nM.
Binder B15 has a Kd of 0.8 nM.
B16 was tested, and the Kd was 0.6 nM.
Work on B8 yielded a Kd of 3.8 nM.
B17 showed a Kd of 0.9 nM.
In the case of B18, the Kd is reported as 5.4 nM.
